We go through 23 molecules from patent publication US20250218531A1 (ABSCI, published 2025).

Where a chain is given by its changes, count along the chain named.

The labels stand for the following.
B1: De novo trastuzumab HCDR2|3 variant IYPEDGST / ARSGGSSTYAYDY (Fab, V domains shown)
VH: EVQLVESGGGLVQPGGSLRLSCAASGFNIKDTYIHWVRQAPGKGLEWVARIYPEDGSTRYADSVKGRFTISADTSKNTAYLQMNSLRAEDTAVYYCARSGGSSTYAYDYWGQGTLVTVSS
VL: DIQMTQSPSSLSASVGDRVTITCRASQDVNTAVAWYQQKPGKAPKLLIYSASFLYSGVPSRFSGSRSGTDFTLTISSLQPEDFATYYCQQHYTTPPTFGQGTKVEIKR
B2: De novo trastuzumab HCDR2|3 variant IYPSNGYT / ARYRGSSSYYFDY (Fab, V domains shown)
VH: B1 VH with E54S, D55N, S57Y, S99Y, G100R, T104S, A106Y, Y107F
VL: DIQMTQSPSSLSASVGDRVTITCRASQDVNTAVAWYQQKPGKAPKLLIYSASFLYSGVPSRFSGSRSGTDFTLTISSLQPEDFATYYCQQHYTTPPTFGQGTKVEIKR
B3: Multi-step trastuzumab HCDR3 variant ARYSGSSYYYYDY (SEQ ID NO: 536) (Fab, V domains shown)
VH: B1 VH with E54T, D55N, S57Y, S99Y, G100S, T104Y, A106Y
VL: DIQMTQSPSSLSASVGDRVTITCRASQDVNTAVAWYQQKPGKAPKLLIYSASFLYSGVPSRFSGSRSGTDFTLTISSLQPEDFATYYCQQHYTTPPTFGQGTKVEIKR
B4: Multi-step trastuzumab HCDR3 variant ARYGGRSSYYFDY (SEQ ID NO: 545) (Fab, V domains shown)
VH: B1 VH with E54T, D55N, S57Y, S99Y, S102R, T104S, A106Y, Y107F
VL: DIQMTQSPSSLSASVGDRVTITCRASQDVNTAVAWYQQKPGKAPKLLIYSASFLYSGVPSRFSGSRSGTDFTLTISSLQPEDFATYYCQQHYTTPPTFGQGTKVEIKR
B5: Multi-step trastuzumab HCDR3 variant ARSGGYYTYGFDY (SEQ ID NO: 548) (Fab, V domains shown)
VH: B1 VH with E54T, D55N, S57Y, S102Y, S103Y, A106G, Y107F
VL: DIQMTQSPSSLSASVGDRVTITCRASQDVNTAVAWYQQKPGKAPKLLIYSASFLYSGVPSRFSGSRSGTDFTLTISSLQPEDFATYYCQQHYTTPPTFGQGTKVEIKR
B6: Multi-step trastuzumab HCDR3 variant ARSGGSYSYSFDV (SEQ ID NO: 522) (Fab, V domains shown)
VH: B1 VH with E54T, D55N, S57Y, S103Y, T104S, A106S, Y107F, Y109V
VL: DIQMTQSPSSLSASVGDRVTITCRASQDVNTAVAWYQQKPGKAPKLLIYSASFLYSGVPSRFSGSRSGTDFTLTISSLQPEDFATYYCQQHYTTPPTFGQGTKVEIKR
B7: Multi-step trastuzumab HCDR3 variant ARSSGYYYYGFVY (SEQ ID NO: 540) (Fab, V domains shown)
VH: B1 VH with E54T, D55N, S57Y, G100S, S102Y, S103Y, T104Y, A106G, Y107F, D108V
VL: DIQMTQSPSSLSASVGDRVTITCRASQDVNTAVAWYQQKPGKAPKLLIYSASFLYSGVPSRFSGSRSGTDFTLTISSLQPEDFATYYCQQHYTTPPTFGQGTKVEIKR
B8: Multi-step trastuzumab HCDR3 variant ARSYGSGSYSFDY (SEQ ID NO: 514) (Fab, V domains shown)
VH: B1 VH with E54T, D55N, S57Y, G100Y, S103G, T104S, A106S, Y107F
VL: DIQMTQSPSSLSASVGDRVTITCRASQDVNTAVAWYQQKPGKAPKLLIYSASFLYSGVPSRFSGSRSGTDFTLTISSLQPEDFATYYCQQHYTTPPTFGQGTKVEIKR
B9: Multi-step trastuzumab HCDR3 variant ARYRGRGFYSFDY (SEQ ID NO: 532) (Fab, V domains shown)
VH: B1 VH with E54T, D55N, S57Y, S99Y, G100R, S102R, S103G, T104F, A106S, Y107F
VL: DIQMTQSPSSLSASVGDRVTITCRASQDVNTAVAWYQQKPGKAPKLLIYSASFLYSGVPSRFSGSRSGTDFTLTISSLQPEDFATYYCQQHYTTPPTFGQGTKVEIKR
B10: Multi-step trastuzumab HCDR3 variant ARYYGSSSYYFAY (SEQ ID NO: 75) (Fab, V domains shown)
VH: B1 VH with E54T, D55N, S57Y, S99Y, G100Y, T104S, A106Y, Y107F, D108A
VL: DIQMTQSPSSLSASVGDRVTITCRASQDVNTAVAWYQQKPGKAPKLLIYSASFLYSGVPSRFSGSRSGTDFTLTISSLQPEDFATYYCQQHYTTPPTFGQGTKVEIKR
notes: also called AI Design 9
B11: Multi-step trastuzumab HCDR3 variant ARYGGSYFYYYSY (SEQ ID NO: 517) (Fab, V domains shown)
VH: B1 VH with E54T, D55N, S57Y, S99Y, S103Y, T104F, A106Y, D108S
VL: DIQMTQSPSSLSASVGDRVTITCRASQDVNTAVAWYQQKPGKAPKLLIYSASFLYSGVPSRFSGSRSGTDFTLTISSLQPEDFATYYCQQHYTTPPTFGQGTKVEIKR
B12: Multi-step trastuzumab HCDR3 variant ARSRGSSSYMMDY (SEQ ID NO: 512) (Fab, V domains shown)
VH: B1 VH with E54T, D55N, S57Y, G100R, T104S, A106M, Y107M
VL: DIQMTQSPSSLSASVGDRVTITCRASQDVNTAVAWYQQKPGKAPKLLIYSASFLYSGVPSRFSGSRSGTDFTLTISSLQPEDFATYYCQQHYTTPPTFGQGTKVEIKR
B13: Multi-step trastuzumab HCDR3 variant ARSGGRYTYGFDY (SEQ ID NO: 551) (Fab, V domains shown)
VH: B1 VH with E54T, D55N, S57Y, S102R, S103Y, A106G, Y107F
VL: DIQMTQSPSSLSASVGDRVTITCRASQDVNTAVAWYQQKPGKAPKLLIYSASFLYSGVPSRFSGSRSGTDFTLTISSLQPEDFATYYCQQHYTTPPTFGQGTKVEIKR
B14: Multi-step trastuzumab HCDR3 variant ARYGGSSYYYYDY (SEQ ID NO: 529) (Fab, V domains shown)
VH: B1 VH with E54T, D55N, S57Y, S99Y, T104Y, A106Y
VL: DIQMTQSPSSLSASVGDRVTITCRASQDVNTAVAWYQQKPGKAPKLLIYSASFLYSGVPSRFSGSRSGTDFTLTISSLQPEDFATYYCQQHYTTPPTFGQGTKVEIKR
B15: Multi-step trastuzumab HCDR3 variant ARYSGDSYYYYDY (SEQ ID NO: 550) (Fab, V domains shown)
VH: B1 VH with E54T, D55N, S57Y, S99Y, G100S, S102D, T104Y, A106Y
VL: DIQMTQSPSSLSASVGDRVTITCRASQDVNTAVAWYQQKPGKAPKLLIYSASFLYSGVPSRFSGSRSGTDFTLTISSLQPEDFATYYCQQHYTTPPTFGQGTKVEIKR
B16: Multi-step trastuzumab HCDR3 variant ARDGGRGRYAMDY (SEQ ID NO: 541) (Fab, V domains shown)
VH: B1 VH with E54T, D55N, S57Y, S99D, S102R, S103G, T104R, Y107M
VL: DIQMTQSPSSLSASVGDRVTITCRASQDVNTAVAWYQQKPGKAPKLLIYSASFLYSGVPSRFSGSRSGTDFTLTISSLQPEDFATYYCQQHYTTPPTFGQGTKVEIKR
B17: Multi-step trastuzumab HCDR3 variant ARVGGYGYYSYDY (SEQ ID NO: 539) (Fab, V domains shown)
VH: B1 VH with E54T, D55N, S57Y, S99V, S102Y, S103G, T104Y, A106S
VL: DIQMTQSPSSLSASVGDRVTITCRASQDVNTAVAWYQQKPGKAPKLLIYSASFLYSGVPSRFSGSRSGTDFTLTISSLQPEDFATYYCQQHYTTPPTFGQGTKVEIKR
B18: De novo trastuzumab HCDR2|3 variant IYPSNGYT / ARYYGGSMYYYGY (Fab, V domains shown)
VH: B1 VH with E54S, D55N, S57Y, S99Y, G100Y, S102G, T104M, A106Y, D108G
VL: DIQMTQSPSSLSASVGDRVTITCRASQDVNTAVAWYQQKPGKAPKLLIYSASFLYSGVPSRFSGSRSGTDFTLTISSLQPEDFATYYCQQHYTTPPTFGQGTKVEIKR
B19: Multi-step trastuzumab HCDR3 variant ARDGGSSSYSYSY (SEQ ID NO: 535) (Fab, V domains shown)
VH: B1 VH with E54T, D55N, S57Y, S99D, T104S, A106S, D108S
VL: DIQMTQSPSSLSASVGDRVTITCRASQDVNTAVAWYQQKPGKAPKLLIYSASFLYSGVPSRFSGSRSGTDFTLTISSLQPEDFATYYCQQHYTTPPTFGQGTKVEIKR
B20: Multi-step trastuzumab HCDR3 variant ARDRGVSGYYLYY (SEQ ID NO: 516) (Fab, V domains shown)
VH: B1 VH with E54T, D55N, S57Y, S99D, G100R, S102V, T104G, A106Y, Y107L, D108Y
VL: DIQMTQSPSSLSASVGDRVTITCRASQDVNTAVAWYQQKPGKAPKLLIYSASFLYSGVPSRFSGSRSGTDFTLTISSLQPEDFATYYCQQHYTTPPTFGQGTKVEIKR
B21: De novo trastuzumab HCDR2|3 variant IYPSNGYT / ARSGYYYSYSFDY (Fab, V domains shown)
VH: B1 VH with E54S, D55N, S57Y, G101Y, S102Y, S103Y, T104S, A106S, Y107F
VL: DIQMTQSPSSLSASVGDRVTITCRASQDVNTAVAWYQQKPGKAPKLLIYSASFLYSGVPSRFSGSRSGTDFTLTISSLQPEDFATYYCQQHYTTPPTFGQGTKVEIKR
B22: De novo trastuzumab HCDR2|3 variant IYPSNGYT / ARSSGYYSYSYDY (Fab, V domains shown)
VH: B1 VH with E54S, D55N, S57Y, G100S, S102Y, S103Y, T104S, A106S
VL: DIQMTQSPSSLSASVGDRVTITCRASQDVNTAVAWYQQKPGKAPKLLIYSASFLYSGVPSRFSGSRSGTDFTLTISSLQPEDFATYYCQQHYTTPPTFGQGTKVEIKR
B23: Multi-step trastuzumab HCDR3 variant ARYGGSSYYYFDY (SEQ ID NO: 528) (Fab, V domains shown)
VH: B1 VH with E54T, D55N, S57Y, S99Y, T104Y, A106Y, Y107F
VL: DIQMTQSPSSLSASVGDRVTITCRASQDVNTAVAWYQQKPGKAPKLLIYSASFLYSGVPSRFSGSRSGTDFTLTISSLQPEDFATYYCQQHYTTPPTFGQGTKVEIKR

The target of the assay is human epidermal growth factor receptor 2 (HER2) extracellular domain (human, UniProt P04626 23-629). Kind of assay: SPR, Fab format. A general note: SPR reads the build-up and loss of mass on a sensor chip optically.
Turning to B1, binding was characterised by a dissociation constant (Kd) of 0.669 µM and the “log(KD (M))” value is -6.17 log M.

For the molecule B2, the Kd is 0.907 µM and the “log(KD (M))” value was -6.04 log M.

Turning to B3, binding was put at a Kd of 0.423 µM and the “log(KD (M))” value is -6.37 log M.

For B4, the equilibrium dissociation constant (Kd) stood at 0.257 µM and the “log(KD (M))” value was -6.59 log M.

On to B5, for which binding was characterised by a dissociation constant (Kd) of 0.338 µM and the “log(KD (M))” value is -6.47 log M.

Regarding B6, binding was characterised by a dissociation constant (Kd) of 1.07 µM and the “log(KD (M))” value was -5.97 log M.

In the case of B7, the Kd turned out to be 0.157 µM and the “log(KD (M))” value was -6.8 log M.

Consider B8, for which the Kd amounted to 0.495 µM and the “log(KD (M))” value is -6.31 log M.

In the case of B9, the Kd turned out to be 0.022 µM and the “log(KD (M))” value was -7.66 log M.

Regarding B10, the affinity, expressed as Kd, was 0.0606 µM and the “log(KD (M))” value is -7.22 log M.

Take B11: the equilibrium dissociation constant (Kd) was 0.00731 µM and the “log(KD (M))” value was -8.14 log M.

With B12, binding was characterised by a dissociation constant (Kd) of 0.566 µM and the “log(KD (M))” value was -6.25 log M.

Regarding B13, the dissociation constant (Kd) came to 1.41 µM and the “log(KD (M))” value was -5.85 log M.

With B14, the Kd came to 0.0723 µM and the “log(KD (M))” value is -7.14 log M.

With B15, the dissociation constant (Kd) is 0.366 µM and the “log(KD (M))” value was -6.44 log M.

B16: the Kd is 0.402 µM and the “log(KD (M))” value is -6.4 log M.

As for B17, the affinity, expressed as Kd, was 0.169 µM and the “log(KD (M))” value was -6.77 log M.

As to B18, the affinity, expressed as Kd, was 0.109 µM and the “log(KD (M))” value was -6.96 log M.

Turning to B19, binding was put at a Kd of 0.146 µM and the “log(KD (M))” value was -6.83 log M.

In the case of B20, the equilibrium dissociation constant (Kd) was 0.567 µM and the “log(KD (M))” value was -6.25 log M.

As for B21, the dissociation constant (Kd) is 0.348 µM and the “log(KD (M))” value is -6.46 log M.

Consider B22, for which binding was characterised by a dissociation constant (Kd) of 0.23 µM and the “log(KD (M))” value was -6.64 log M.

As to B23, the affinity, expressed as Kd, was 0.0972 µM and the “log(KD (M))” value is -7.01 log M.

What is called Kd is a measure of binding affinity in units of concentration.
